Test results published in the supplement of paper PMC10567573.

B1: RHOBTB3 (parent)
chain: KVVEAHKIVLCAVSHVFMLLFNVK

Variants of: B1
Experiment: protein stability index of a GFP-peptide fusion (GPS, HEK-293T) (PSI 1-6); higher = more stable
Conditions: c terminus: a fixed tail appended
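Further: lentivirally expressed fusions sorted by FACS into six bins by GFP to DsRed ratio, PSI derived from sequencing read proportions per bin multiplied by bin number.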

Variant | protein stability index
KVVEAHKIVLCAVSTVFMLLFNVK [H15T] | 1.92
KVVEAHKIVLCAVSHVFMLLFNVP [K24P] | 3.35
KVVEAHKIVLCAVSHVFILLFNVK [M18I] | 3.05
KVVEAHKIVLCALSHVFMLLFNVK [V13L] | 2.12
KVVEAHKIVLCAVSYVFMLLFNVK [H15Y] | 3.36
DVVEAHKIVLCAVSHVFMLLFNVK [K1D] | 4.55
KVVEAHKIVICAVSHVFMLLFNVK [L10I] | 2.64
PVVEAHKIVLCAVSHVFMLLFNVK [K1P] | 3.1
KVVKAHKIVLCAVSHVFMLLFNVK [E4K] | 3.02
KVVEAHKIVLCAVSSVFMLLFNVK [H15S] | 2.82
KVVSAHKIVLCAVSHVFMLLFNVK [E4S] | 1.9
LVVEAHKIVLCAVSHVFMLLFNVK [K1L] | 3.15
KVVEAHKIVLCAVSHVFRLLFNVK [M18R] | 1.14
KVVEAHMIVLCAVSHVFMLLFNVK [K7M] | 2.93
KVVEAHKIVLCAVSHVFMLLFQVK [N22Q] | 2.84
KVVEAHKIVLCAVSHVFMLLWNVK [F21W] | 2.5
KVVEAHKIVLCAVSKVFMLLFNVK [H15K] | 2.17
KVVEAHKIVLSAVSHVFMLLFNVK [C11S] | 1.98
KVVEAHKIVLCAVMHVFMLLFNVK [S14M] | 3.96
KVVEAHKNVLCAVSHVFMLLFNVK [I8N] | 1.89
KVVEAHKIVPCAVSHVFMLLFNVK [L10P] | 1.82
KKVEAHKIVLCAVSHVFMLLFNVK [V2K] | 1.62
KVVEAHKIVLCAVSHVFMLLYNVK [F21Y] | 2.14
KVVEAHKIVLCAVSHVFMLLFNMK [V23M] | 1.75

Variant | protein stability index
KVVEAHYIVLCAVSHVFMLLFNVK [K7Y] | 3.35
KVVEAHKIVLCAVSHVFMLLFSVK [N22S] | 2.72
KVVEAHKIVLCAVSHVFMLLFNGK [V23G] | 3.05
KLVEAHKIVLCAVSHVFMLLFNVK [V2L] | 2.32
KVVEAHKIVLFAVSHVFMLLFNVK [C11F] | 1.94
KVVEEHKIVLCAVSHVFMLLFNVK [A5E] | 3.14
KVVEAHKIVACAVSHVFMLLFNVK [L10A] | 1.75
KVVPAHKIVLCAVSHVFMLLFNVK [E4P] | 2.37
KEVEAHKIVLCAVSHVFMLLFNVK [V2E] | 2.64
KVVEAHKIVLCAVSHVQMLLFNVK [F17Q] | 2.41
KVVEACKIVLCAVSHVFMLLFNVK [H6C] | 2.58
KVVEAHKIVLCAVSHVFMLLFNSK [V23S] | 2.44
KVVEYHKIVLCAVSHVFMLLFNVK [A5Y] | 3.88
KVVEAHKIVLCAVSHVFMLLFNVR [K24R] | 2.48
KVVEAHKIVLDAVSHVFMLLFNVK [C11D] | 2.13
KVVEAHKIVLIAVSHVFMLLFNVK [C11I] | 4.05
KVVEAHKIVLCKVSHVFMLLFNVK [A12K] | 2.92
KVVEAHKIVLCFVSHVFMLLFNVK [A12F] | 2.55
KVVEAFKIVLCAVSHVFMLLFNVK [H6F] | 2.13
KVVEAHKIVLCAVSRVFMLLFNVK [H15R] | 2.27
KVVEAHKIVLCPVSHVFMLLFNVK [A12P] | 2.73
KVVEAHKIELCAVSHVFMLLFNVK [V9E] | 2.79
KVVEAHKIVLCAVSHVFMILFNVK [L19I] | 3.67
KVVEAHKIVLCAVSHVTMLLFNVK [F17T] | 2.9

Variant | protein stability index
KVVEAHKIVLCAVSHVFMLMFNVK [L20M] | 2.63
KVVEAHGIVLCAVSHVFMLLFNVK [K7G] | 2.79
KVVEAHKIVLCAVSHVFMLSFNVK [L20S] | 2.6
KVVEAHKIVLCAVSHVFMLLFNVG [K24G] | 2.28
KVEEAHKIVLCAVSHVFMLLFNVK [V3E] | 1.82
KVVEAHKIVLCAVSHVFMLLFNKK [V23K] | 3.66
KVVEAHKIVLCAVSHVFMLLPNVK [F21P] | 1.98
KVVEAHKIVLCAVSHVFMLLFNVW [K24W] | 2.42
KVVEAHKIVLCAVSHVFMLLFGVK [N22G] | 2.71
KVVEAHKIVLCAVSHQFMLLFNVK [V16Q] | 3.14
KVVEAHKFVLCAVSHVFMLLFNVK [I8F] | 2.48
KVVEHHKIVLCAVSHVFMLLFNVK [A5H] | 2.9
KVVEAHKIVLCAVSHYFMLLFNVK [V16Y] | 2.19
KGVEAHKIVLCAVSHVFMLLFNVK [V2G] | 2.64
KVVEAMKIVLCAVSHVFMLLFNVK [H6M] | 1.63
KVVEAHKIVLHAVSHVFMLLFNVK [C11H] | 4.45
KVVEAHKIVLVAVSHVFMLLFNVK [C11V] | 3.24
KVVEAHKIVLCAVSHPFMLLFNVK [V16P] | 3.16
KVVEAHKIVLCAVSHVFFLLFNVK [M18F] | 3.57
KVVEAHKIVLCAVSHVFMPLFNVK [L19P] | 2.31
KVVEAHKIVLCAVSHVSMLLFNVK [F17S] | 2.33
KVVHAHKIVLCAVSHVFMLLFNVK [E4H] | 2.69
KVVEAHKIVLCAVSHSFMLLFNVK [V16S] | 3.16
KVVEAHKPVLCAVSHVFMLLFNVK [I8P] | 2.29

Variant | protein stability index
KVVEAHKIVLCATSHVFMLLFNVK [V13T] | 4.13
KVVEAHKIVLCAVSHVFMLEFNVK [L20E] | 1.65
KVVEAHKIVLCAVSHVFMLPFNVK [L20P] | 2.49
KVVEAHKIVLCAVSHVFMLKFNVK [L20K] | 1.89
KVVEAHKIVLCAVPHVFMLLFNVK [S14P] | 2.55
KVVEAHKIVLCAVSFVFMLLFNVK [H15F] | 2.06
KVVEAHKIVLCAVSVVFMLLFNVK [H15V] | 3.1
KVVEAHKIVLCAVSHVFMLLFNHK [V23H] | 3.18
KPVEAHKIVLCAVSHVFMLLFNVK [V2P] | 3.44
KVVEAHCIVLCAVSHVFMLLFNVK [K7C] | 1.83
KVIEAHKIVLCAVSHVFMLLFNVK [V3I] | 3.11
KVVEFHKIVLCAVSHVFMLLFNVK [A5F] | 2.45
KVVEAHKIVLCAVSHVFMLLDNVK [F21D] | 3.1
KVVQAHKIVLCAVSHVFMLLFNVK [E4Q] | 2.23
KVVEAHKIVLCAVSHVFCLLFNVK [M18C] | 2.3
KVVEAHKIVLCDVSHVFMLLFNVK [A12D] | 3.75
KVVEAHKIVLCAVSHVFMLLFNVM [K24M] | 2.27
KVVEAHKIVLCAVSHVFMLLFNFK [V23F] | 2.99
KVCEAHKIVLCAVSHVFMLLFNVK [V3C] | 2.3
KVVEAHKIVLCAVGHVFMLLFNVK [S14G] | 2.17
KVVEAHKRVLCAVSHVFMLLFNVK [I8R] | 2.17
KVVEAHKIVLCAVSHVVMLLFNVK [F17V] | 1.88
